These results are taken from paper PMC10786891, “Massively parallel profiling of RNA-targeting CRISPR-Cas13d”.

Residue numbers refer to the chain shown, from its start. Names may count otherwise.

First the molecules themselves.
T1: EsCas13d, nuclease-dead (Eubacterium siraeum, UniProt B0MS50, R295A;H300A;R849A;H854A)
T1 sequence: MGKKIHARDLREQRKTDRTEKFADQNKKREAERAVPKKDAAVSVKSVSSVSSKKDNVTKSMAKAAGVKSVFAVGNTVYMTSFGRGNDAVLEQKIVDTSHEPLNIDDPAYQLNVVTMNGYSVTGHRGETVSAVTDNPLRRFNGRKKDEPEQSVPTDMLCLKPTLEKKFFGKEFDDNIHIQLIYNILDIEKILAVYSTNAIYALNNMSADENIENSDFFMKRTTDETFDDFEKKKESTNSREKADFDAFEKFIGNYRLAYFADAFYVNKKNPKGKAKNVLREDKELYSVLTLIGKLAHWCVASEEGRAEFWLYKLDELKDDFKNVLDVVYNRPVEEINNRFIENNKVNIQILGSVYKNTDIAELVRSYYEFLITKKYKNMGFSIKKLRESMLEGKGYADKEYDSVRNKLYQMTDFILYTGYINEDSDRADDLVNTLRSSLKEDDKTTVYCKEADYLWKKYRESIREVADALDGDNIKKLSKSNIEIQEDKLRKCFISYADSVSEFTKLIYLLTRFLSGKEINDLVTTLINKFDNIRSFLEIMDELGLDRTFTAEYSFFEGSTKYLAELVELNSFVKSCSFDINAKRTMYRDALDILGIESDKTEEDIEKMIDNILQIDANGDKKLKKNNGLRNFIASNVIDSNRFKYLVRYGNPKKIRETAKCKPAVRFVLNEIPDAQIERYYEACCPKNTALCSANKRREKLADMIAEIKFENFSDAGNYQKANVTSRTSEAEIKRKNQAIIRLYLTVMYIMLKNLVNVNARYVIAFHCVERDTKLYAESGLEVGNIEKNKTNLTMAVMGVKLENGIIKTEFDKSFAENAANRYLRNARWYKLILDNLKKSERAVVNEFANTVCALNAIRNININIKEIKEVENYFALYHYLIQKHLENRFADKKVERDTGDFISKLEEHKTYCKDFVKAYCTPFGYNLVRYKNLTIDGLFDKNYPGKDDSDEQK

B1: target 1 C6U,U8G (mixed)
RNA 1: CACCCGUGCAAAAAUGCAGGGGUCUAAAACUGAGCGGAUAACCUCUCUAUGG
RNA 2: GGGAAUGGAUCCACAUCUACGAAUUCGUACCAUAGAGAGGUUAGCUGCUCACCGAGAUCGGAAGAGCACACGU
B2: target 1 U11G,G13C (mixed)
RNA 1: B1 RNA 1
RNA 2: B1 RNA 2 with G39C, U41G, G44U, U46C
B3: target 3 U22A (mixed)
RNA 1: CACCCGUGCAAAAUUGCAGGGGUCUAAAACGACCUGAAUAUUUCAGAUCAAA
RNA 2: GGGAAUGGAUCCACAUCUACGAAUUCGUUAUUGAUCUGAAAUAUUCAGGUCUGCAGAUCGGAAGAGCACACGU
B4: target 3 insG 3' of 9,insG 3' of 9 (mixed)
RNA 1: B3 RNA 1
RNA 2: GGGAAUGGAUCCACAUCUACGAAUUCGUUUUUGAUCUGAAAUAGGUUCAGGUCUGCAGAUCGGAAGAGCACACGU
B5: target 3 complement block 4-6 (mixed)
RNA 1: B3 RNA 1
RNA 2: B3 RNA 2 with A30U, C46G, A47U, G48C
B6: target 3 insA 3' of 10,insG 3' of 7 (mixed)
RNA 1: B3 RNA 1
RNA 2: B4 RNA 2 with G44A, G45U, U47G
B7: target 3 G3C,A18G (mixed)
RNA 1: B3 RNA 1
RNA 2: B3 RNA 2 with A30U, A34G, G49C
B8: target 3 insC 3' of 11,insC 3' of 3 (mixed)
RNA 1: B3 RNA 1
RNA 2: B4 RNA 2 with U42C, A43U, G44A, G45U, U47C, C48A, A49G, G51C
B9: target 3 insU 3' of 5,insU 3' of 1 (mixed)
RNA 1: B3 RNA 1
RNA 2: B4 RNA 2 with G44U, G45U, U46C, U47A, C48U, A49G, G51U, U52C, C53U
B10: target 3 A18G,U22C (mixed)
RNA 1: B3 RNA 1
RNA 2: B3 RNA 2 with A30C, A34G
B11: target 3 insU 3' of 5,insA 3' of 1 (mixed)
RNA 1: B3 RNA 1
RNA 2: B4 RNA 2 with G44U, G45U, U46C, U47A, C48U, A49G, G51U, U52C, C53A
B12: target 3 C1G,U22A (mixed)
RNA 1: B3 RNA 1
RNA 2: B3 RNA 2 with C51G
B13: target 3 C6A,U22C (mixed)
RNA 1: B3 RNA 1
RNA 2: B3 RNA 2 with A30C, C46A
B14: target 3 U2G,A11G (mixed)
RNA 1: B3 RNA 1
RNA 2: B3 RNA 2 with A30U, A41G, U50G
B15: target 3 insA 3' of 14 (mixed)
RNA 1: B3 RNA 1
RNA 2: GGGAAUGGAUCCACAUCUACGAAUUCGUUUUUGAUCUGAAAAUAUUCAGGUCUGCAGAUCGGAAGAGCACACGU
B16: target 3 insU 3' of 5,insG 3' of 1 (mixed)
RNA 1: B3 RNA 1
RNA 2: B4 RNA 2 with G44U, G45U, U46C, U47A, C48U, A49G, G51U, U52C, C53G
B17: target 3 G4C,C6G (mixed)
RNA 1: B3 RNA 1
RNA 2: B3 RNA 2 with A30U, C46G, G48C
B18: target 3 A5C,U8G (mixed)
RNA 1: B3 RNA 1
RNA 2: B3 RNA 2 with A30U, U44G, A47C
B19: target 3 C1U,C16U (mixed)
RNA 1: B3 RNA 1
RNA 2: B3 RNA 2 with A30U, C36U, C51U
B20: target 3 insU 3' of 9,insG 3' of 8 (mixed)
RNA 1: B3 RNA 1
RNA 2: B4 RNA 2 with G44U, G45U, U46G
B21: target 3 G4A,A5G (mixed)
RNA 1: B3 RNA 1
RNA 2: B3 RNA 2 with A30U, A47G, G48A
B22: target 3 insA 3' of 4 (mixed)
RNA 1: B3 RNA 1
RNA 2: B15 RNA 2 with A42U, U43A, A44U, U46C, C47A, A48G, G49A
B23: target 3 A5G,U7G (mixed)
RNA 1: B3 RNA 1
RNA 2: B3 RNA 2 with A30U, U45G, A47G
B24: target 3 insC 3' of 12,insG 3' of 2 (mixed)
RNA 1: B3 RNA 1
RNA 2: GGGAAUGGAUCCACAUCUACGAAUUCGUUUUUGAUCUGAACAUAUUCAGGUGCUGCAGAUCGGAAGAGCACACGU
B25: target 3 insU 3' of 22,insC 3' of 3 (mixed)
RNA 1: B3 RNA 1
RNA 2: GGGAAUGGAUCCACAUCUACGAAUUCGUUUUUUGAUCUGAAAUAUUCAGGCUCUGCAGAUCGGAAGAGCACACGU
B26: target 3 insA 3' of 8,insG 3' of 5 (mixed)
RNA 1: B3 RNA 1
RNA 2: B4 RNA 2 with G44U, G45A, U47C, C48A, A49G
B27: target 3 insU 3' of 5,insC 3' of 2 (mixed)
RNA 1: B3 RNA 1
RNA 2: B4 RNA 2 with G44U, G45U, U46C, U47A, C48U, A49G, G51U, U52C
B28: target 3 U2A,A5C (mixed)
RNA 1: B3 RNA 1
RNA 2: B3 RNA 2 with A30U, A47C, U50A
B29: target 3 insG 3' of 2,insU 3' of 1 (mixed)
RNA 1: B3 RNA 1
RNA 2: B4 RNA 2 with G44U, G45U, U46C, U47A, C48G, A49G, G50U, U52C, C53U
B30: target 3 insA 3' of 22,insG 3' of 7 (mixed)
RNA 1: B3 RNA 1
RNA 2: B25 RNA 2 with U31A, C47G, A48C, G49A, C51G
B31: target 3 A5G,A9G (mixed)
RNA 1: B3 RNA 1
RNA 2: B3 RNA 2 with A30U, A43G, A47G

The target in the data set is T1, EsCas13d, nuclease-dead. Nature of the data set: crRNA (strand 1, pre-loaded); Mg2+; 40 mM Tris-HCl pH 7.5, 150 mM NaCl, 6 mM MgCl2, 1 mM DTT, 0.1% Tween-20, 0.2 mg/ml BSA; 25 C; 10 min per concentration, then washed. Particulars: tags: His6-TwinStrep-SUMO cleaved; N-terminal SNAP kept (SNAP-Surface 488); label: 3' end held by stalled T7 RNA polymerase.
In turn, B1 registered a Kd of 11 ± 0.5 nM.

Molecule B2 registered a Kd of roughly 70 nM.

For B3, the Kd was determined as 14.8 ± 1.45 nM.

For the molecule B4, the affinity, expressed as Kd, was 102 ± 21 nM.

For the molecule B5, the dissociation constant (Kd) worked out at 23.7 ± 2.45 nM. This Kd is about 4.3-fold lower than that of the molecule before.

Turning to B6, the affinity, expressed as Kd, was 73.5 ± 9.5 nM. Compared with the last molecule, the Kd is about 3.1-fold higher.

In turn, B7 returned an equilibrium dissociation constant (Kd) of 38.7 ± 6.25 nM.

In turn, B8 registered a Kd of 50 ± 6 nM.

For the molecule B9, the Kd was found to be 31 ± 10 nM.

In turn, B10 returned a Kd of 13.8 ± 2 nM.

In turn, B11 gave a dissociation constant (Kd) of 36.5 ± 10.5 nM.

On to B12, for which binding was put at a Kd of 25.1 ± 5.2 nM.

With B13, the Kd was found to be 49.5 ± 7.5 nM. This Kd is about 2-fold higher than that of the molecule before.

In turn, B14 came in with a Kd of 62.5 ± 12 nM.

On to B15, for which binding was characterised by a dissociation constant (Kd) of 60 ± 12 nM.

In turn, B16 came in with a Kd of 27 ± 4.5 nM.

The molecule B17 displayed a Kd of 24.1 ± 3.15 nM.

Molecule B18 showed a Kd of 74 ± 12 nM.

Turning to B19, binding was put at a Kd of 66.5 ± 15.5 nM.

With B20, the Kd amounted to 82 ± 19 nM.

On to B21, for which the Kd came out at 19.5 ± 1.7 nM.

As to B22, binding was characterised by a dissociation constant (Kd) of 65.5 ± 15 nM.

Molecule B23 gave a dissociation constant Kd of 44 ± 6 nM.

B24: the Kd was determined as 94 ± 39.5 nM.

B25 returned a Kd of 12.2 ± 1.35 nM.

On to B26, for which the Kd turned out to be 68 ± 15 nM.

As to B27, binding was characterised by a dissociation constant (Kd) of 40.5 ± 6 nM.

The molecule B28 had a Kd of 47.6 ± 10.6 nM.

B29 yielded a Kd of 67.5 ± 9 nM. This Kd and that of the molecule before are within 1.5-fold of each other.

Molecule B30 displayed a Kd of 96 ± 32.5 nM.

Turning to B31, binding was put at a Kd of 73 ± 14 nM.

Usually Kd stands for the concentration at which binding is half-saturated. Read a low Kd as a tighter complex.
